A short description of this data set: label from the status in PepcDB records.
With “MCMLEPSKIFKALSNPINLKILTLLRSSSFHPRELARILNRDETDISRRLRQLERLGLIKGKWERVDGKNVRVYSLKVSEIRIFMHPTKLEVKVGENESYEAPIEWESSPRVEVFVGRKRELSIIRNAKGVVVIYGIAGIGKTSLAAKAFPNAYWYNVTGLEDFKYFAWQLGLFLSSIGFEDLLEYLRGGGNNENDIFKLITEGIEKTGAIIIIDDFHKFQDEKVNYLLSYLAPRIKKGKVIITTRIRPNLGNEGVTYVNLKGLNPEEAYSLAREKEKSMTPEEFAKLYKLTFGHPLMLNLILESSEILATGKDTVFNFLFEEVYQMLNEEEKDLLSILSLFDEPIEYEGIKFLYDRNPFVPLYSLMKKGLIEKKGEKYFVHDMVREFVREVSNQEEKEVYLRHVNFLLKSKTPINFLRAFKYAIKVGSSELIRNLVELRVKEFYRIIVDFPRMYQRLLMEVEDNPYAKIEIAIIEVQRGLFEKAIKLLKEAEPYVDEFFKCEIYSWLADAYMELENLEKAERYLKKTKEIVEKINDMYAWFSYYAEKTKYEYYKENSREALKSALKELEIIRKIGDPEKEGLVLLHVGDIYLHMGNYEKGISYYQEALKMAKAYGIKFLEHISYMELAKGYYQLKLYEKASEYSEKAANYFLMIRNYRRATDAMAYGSVSYIATKNLEKAEKFAKEMIRIAQSTDYPLAWAGYIFLAAVDFLKGDDWREDYNLGKAHLKEYPWLFEAVLDELKKVFDLSNFK”, the protein production result was “failed”. Take “MCQTCLSWYARCVAPYFVHAGCSAGAFSQMRRRVIPRAEGVVVEVGFGSGLNLPYYDAARVERLVGIDPDGTMLGLAAPKSRAMPFAVECIRAGGESLPLADGIADTVVVTYAFCTIPDPQAALSEIRRVLKPRGRLIFIEHGQAEGPRGRRWQQRLNRLWGSIAGGCHLNRDPLRLIGGAGFRLLEVQHGRFPLPLWQLGSHHAGIAAAG”: the protein production result was “failed”.

Regarding “MCRSGSRCCPPIKLRVACVVAASILTARAGTYAIAACYVAALRVMDQRIAMSLQVLGAGLGRTGTLSLKFALEHLGFGPCYHATEVAANMRTALPLWNAAERGAADWSAIFAGYRSSTDHPGCYYWRQLIEVYPQAKVVLTVRDPDSWFESVTQTILMPGRKSTFVGPEGETFSTFLKQQMGGRSQDRAFMVDYFNRWNQAVIDTVPADRLLVFSARQGWAPLCSFLGVPVPHKPYPHLHARPRLRWFTRGLRLPDDVAARERHVREYLEYLREDLFG”, the protein production result is recorded as “failed”. As for “MCTGTKSFFLLQRFKLKEDVTMEQKPVLDVNEVPKPGKWLFLSIQHLFAMFGSTVLVPFLTGLNPSVALISSGLGTLAFLLITKGQVPAYLGSSFAFIAPIITAKTAGGPGAAMLGGLLAGLVYILISLGIKKSGSEWIMKLLPPIVVGPVVMVIGLALAHTAVNMAMNGADGKYSFTHFSVALVTLAITIICSIFGRGFFSIIPVLLGIIGGYIFAYFQGLVDLKPVAEAKWFVVPDFTVPFVTYTPEFSWKIVLLMVPVALVTISEHIGHQIVLGNVIKRDLIEKPGLHRSIFGDGVATLIASLIGGPPNTTYGENIGVLAITRAYSVYLFIGSAVFAIMFGFIGKISALIHSIPTPVMGGVSILLFGVIASSGLRMMVDDKTDLSDKRNLMIASVILVIGIGGAVLHVGESFQVEGMALAAIVGVLLNLLLPETKQIKQSKQIAS”, the entry is “failed”; as for “MCYAASKLWNVCNYERHHYKELGLEKYPDWYYQKKAHKGDLWYRQLPSQTAQETCKQLDKAWKSFYVLKKTGGIKEPNPPRFKQDNIPVTYMQMGIRHEKGSDQLRLSLPRDLKSYMEETYGIHEKFLYLENKIFRNMDHIKQLRIYPPENGTCELIVIYEIEEPEQLSQNGHYLSVDLGLHNLMTCYDSGNGRTFILGRKYLSLERYFHKEIARVQSVWYAQQSERGIKYPKSSKHIQRLYRKKQNAVKDYLHKTTRWIAEYCRKEDIRCVVVGDIRNIRKEKDMGHKTNQKFHGLPYNRLYIMLEYKLKLYGIQLIKQEESYTSQCSPLSPEVSKRHAEASNRKERGMYITDGVRFNADAVGAFNILRKHLSVSGKQKEMSVTGLKTPEIIKVAA”, “failed”; as for “MDAAKRGFPPVVDAKTCVLILGSLPGDASLAAGQYYGHPRNAFWRLMEGVIDAPLVVRAYEDRLVTLLAHGVGLWDVIETARRPGSLDAAIREPAANDLMALIDTLPALRLVAFNGGTAGRLGGRLIGTRVSTLALPSSSPAYAARTFAQKAAAWAALRDGLADTYSRPHPEPVEGPGRPPRRGRPAPRQP”, “failed”. Take “MDAAVIVPAYNEAESLARCLAPFESQPVELVVVVGGDDGTEQVARDTPFVDTVVRCDEGGAGIARNRGAAAATAPILLFTDADTVVPEDWVRLHLRHYADDEVIGVGGPARPLEDSLKHRVLFKLLSDYWYRVSWPLGFVQQPGFNCSFRADAFKAAGGFNEDIPFMEDTELSLRMKDYGRIVYDADSCVATSARREADEGYVSLFAKYVRGYANHYILRREFDADYFLEHHHHHH”: the protein production entry was “failed”.

On to “MDAEEKDGVLYFEGQVLTGAKVNSVIDHTLLDFGCEAEETIVSCGEDTSNPHGTTEGPLRANAPIILDIFPRSKKKRYFADMTRTVLRGEASEKLKEMYETVLVAQQKALEMVKPGIHSSEIHRAVCDLFEARGYHTYRSGSKAGFTHSTGHGVGLDIHELPSVGESGVLLETGNVITIEPGLYYPGIGGIRLEDMVLVTKTGYENFTGLEKKFVLKSFYNLEHHHHHH”, for which the protein production result was “not failed”.

Consider “MDAEGNLFMSWRDGGTFGIARINEQQNIVTPLIEADAANRILYANGLTVDRATGMLTAAHESVKEVTFTFDPREAWYPRQRNIKYSQSDLNSIVDADRYKNFVTFCPYDGYLYTRYRDGKIAKIDPNTFEGHIIHQGPSGSQYGQAINPAKPWLLYITLHSNAPTAYRQGISVLDLRDPDGTGGFKRLNAPGGSAFRDGPIEDALFNYPKDIKFDNDGNMFVADYGNHCIRMISADNIVTTVAGQPGVAGYKDGGPVESLFKNPWGVAVNEQGDIYIADWGNARIRKLVIELEHHHHHH”, for which the protein production result is on record as “failed”. As for “MDAMEFFRQSAGQWRSQRTTHHLAFRRAENGDSSISVEALEKDDPRVIEICTMHEVDPATAIGGAYVSWQGSMEWDRDAEGHSGTTVFALVPDDASGRSGQLLRERGYAEIVPVIGRFELDENNNLNLVTDYETMSAVEQFWFMGPSLRLRASTVTRFGGLSTAAFCAEVRQTEAAADSEPLKADQLYSSLGW”, the entry is “failed”. Take “MDAPTSQRYTAKARWLHWIMAALIVLAYTLILSRTQFGKGSEYRTLVVQSHFWVGIVVLVLAFFRVAERRRQRPPGITPPLEGVLRAAATLSHYALYAFLFTQPLLGLLTVMVEKGSLPIPLTDLQIPWPLPISDHTAEYFEDLHKLLGKIFYYVIGLHVVAALWHHIVRKDNTLKRML”: the protein production entry is given as “failed”. As for “MDARIVNALIGSVYETIRDVLGIEPKTGKPSTVSHIEIPHSLVTVIGITGGIEGSLIYSFSSETALKVVSAMMGGMEYNQLDELALSAIGELGNMTAGKLAMKLEHLGKHVDITPPTVVSGRDLKIKSFGVILKLPISVFSEEDFDLHLSVKSGG”, the protein production result is listed as “not failed”. As for “MDCCTENACSKPDDDILDIPLDDPGANAAAAKIQASFRGHMARKKIKSGERGRKGPGPGGPGGAGVARGGAGGGPSGD”, the entry is “failed”; as for “MDDGQDAGRSGHRKAATAREGAEAMKPETPGGTAALAKGLTLLDMVADAPEPPRFAELLRASGLPKPTFARILRTLIAYGLVRQDEARGTYVLGQRFLEMSHKVWESFDLVSAATPELERLAAELGETVALCRLDGTMTQYLAERSPNGLSVRVEVGRRVPLHCTAPGKALLAFQDPAVGRALLDRLTLDLQTAKTITTLDALQADLTLTRARGYSISYEEHLPGVNSVAAPVMGRDNTPMGVLVALGPSSRLDSSNIHPAGRELIAAARRITGAAGAVAISSRPRPRSATGRPSAELSCILPWGAQLGESPVWHEGEDALYWVDILHPAVHRFDPATGRNETCETGKLVSAVIPVTGGRLLVASQDGVEWLDFASGRLTPFVSPEAGIADNRLNDAKCGPDGAIWVGSMRIDASKPTGALYRINANGASERKEGGIIVSNGLGWSPDGRTFYFVDTVPGLIHAYDCDPATGALSQRREFARIPVADGRPDGLAVDAEGGVWCAIWDGWCVRRYLPNGKLDQVIDMPVPRPSSIAFGGPDLSTLFITSARTRLPASTLADAPLSGGLFSCRPGISGARIAMFEG”, “failed”. As for “MDDKAFTKELDQWVEQLNECKQLNENQVRTLCEKAKEILTKESNVQEVRCPVTVCGDVHGQFHDLMELFRIGGKSPDTNYLFMGDYVDRGYYSVETVTLLVALKVRYPERITILRGNHESRQITQVYGFYDECLRKYGNANVWKYFTDLFDYLPLTALVDGQIFCLHGGLSPSIDTLDHIRALDRLQEVPHEGPMCDLLWSDPDDRGGWGISPRGAGYTFGQDISETFNHANGLTLVSRAHQLVMEGYNWCHDRNVVTIFSAPNYCYRCGNQAAIMELDDTLKYSFLQFDPAPRRGEPHVTRRTPDYFL”, the entry is “failed”; as for “MDDNTPDLFAEPAAPEGDFLTLGRYAERQYLDYAVSVVKGRALPDVSDGQKPVQRRILYAMNEMGLGDNAKPVKSARVVGDVLGKYHPHGDQSAYDALVRLAQDFSMRYPLIDGQGNFGSRDGDGAAAMRYTEARLTPIAKLLLDEIDEGTVDFMPNYDGSFDEPKLLPARLPFVLLNGASGIAVGLATEIPSHNLREVAAAAVALIRHPALPHAELMQLVPGPDFPGGGQIISSDAEISAAYETGRGSLKVRARWKIEDLARGQWQLVVTELPPNTSCQKVLEEIEELTNPKLKAGKKTLTQEQINTKKTMLDLLDAVRDESGKDAPVRLVFEPKTRTIDQTEFVNSLLAHTSLESNAALNLVMIGEDGRPAQKGLASILGEWVRFRQATVTRRCRHRLGKVNDRIHILEGRMIVFLNIDEVIRIIREADEPKAALISAFGLTERQADDILEIRLRQLARLEKIKIEKELEELRAEKAKLEELLANESAMKRLMIKEIEADAKQYGDERRTLIQQEKRATFEAKVVDEPVTVVVSQKGWVRALKGHGLDPASFSFKAGDGLYAAFQCRTPDTLIAWGSTGRVYSVAVQVLPGGRGDGVPVTSLIELESGSHLLHYFAAPAEQPLLLASSNGFGFIAKIGDMVSRVKAGKSFMTIDTGAAPLAPMPVLPDASQVACLSSGGRLLVFGMDEMKTLSGGGRGVILMALDAKETLVQALAIDAAGVVLTGTGRGGKAQEEALAGGALEPHVGKRARKGRAPDTRLKVSGLRPVLG”, “failed”. For the sequence “MDDRTEYDVYTDGSYVNGQYAWAYAFVKDGKVHYEDADVGKNPAAATMRNVAGEIAAALYAVKKASQLGVKIRILHDYAGIAFWATGEWKAKNEFTQAYAKLMNQYRGIYSFEKVKAHSGNEFNDYVDMKAKSALGIRDLEHHHHHH”, the protein production entry is recorded as “not failed”. As for “MDDSAGHSGEDNALMEKHFMAAVVVTFQSGSTIDVCLARLRAAKDVAEICVVDNGSHDETLNIVQCHALADPRVRFVANLDNPGFAAACNQGAADVSAPWLVFVNPDLMVEPEILAQLRAYAEVYVPALLGVEQVDEHGYPDPAVRRRDPDFAAMLRNPRRGTQLAIPADPTQSLQLVPALSGALMLMSRLLFERLGGWDVGYRLHAEDLDLCRRARQVGATVAVVNTLQVVHLRGVSSRSRPFFVEWHKHCGLWRYFCKFEAPQRGLPVRLGVWLAIWSHAFFQCLGVWLRRR”, the entry is “failed”.

The values above are taken from a protein production outcome set (Wang et al. 2014).
